Laboratory results from the supplement of paper PMC10724198.
± gives the standard deviation of the averaged measurements.

How the values were obtained:
Saccharomyces cerevisiae [1] = test: protein stability index of tFT-peptide fusion (C-terminal peptide) (PSI (0-1 scale)); higher = more stable (slower turnover); conditions: genetic background: wild type; temperature: 30 C
Saccharomyces cerevisiae [2] = test: as above
Experimental: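 MPS profiling in S. cerevisiae of the tFT-X12 degron library: putative degron peptides plus stable controls, 12 aa, fused to the C-terminus of a sfGFP-mCherry timer. Cells are FACS-sorted into 8 mCherry/sfGFP bins and deep-sequenced. PSI runs from 0 (unstable) to 1 (stable). Backgrounds are wild type, das1Δ and doa10Δ at 30 °C, and wild type, das1Δ, cdc34-1 and cdc53-1 at 37 °C; 2-3 technical replicates each.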

[3] = genetic background: cdc34-1, temperature: 37 C
[4] = genetic background: cdc53-1, temperature: 37 C
[5] = genetic background: das1 deletion, temperature: 30 C
[6] = genetic background: das1 deletion, temperature: 37 C
[7] = genetic background: doa10 deletion, temperature: 30 C
[8] = genetic background: wild type, temperature: 30 C
[9] = genetic background: wild type, temperature: 37 C
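Also: PSI is a weighted mean of sequencing reads over stability bins, variants kept only with over 10 reads, mCherry proximal and sfGFP distal, peptide attached via GGGS linker.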

Sequence	protein stability index (Saccharomyces cerevisiae [1])	protein stability index (Saccharomyces cerevisiae [2]; [3])	protein stability index (Saccharomyces cerevisiae [2]; [4])	protein stability index (Saccharomyces cerevisiae [2]; [5])	protein stability index (Saccharomyces cerevisiae [2]; [6])	protein stability index (Saccharomyces cerevisiae [2]; [7])	protein stability index (Saccharomyces cerevisiae [2]; [8])	protein stability index (Saccharomyces cerevisiae [2]; [9])
VLLVRIFLCWVC	0.16 ± 0.039	0.178 ± 0.013	0.256 ± 0.049	0.184 ± 0.017	0.338 ± 0.0097	0.13 ± 0.0046	0.118 ± 0.016	0.1826 ± 0.001
VFVFLFVFLFLL	0.177 ± 0.043	0.147 ± 0.03	0.138 ± 0.041	0.214 ± 0.047	0.313 ± 0.013	0.397 ± 0.098	0.2 ± 0.038	0.253 ± 0.015
TPVIPLIRVRDC	0.29 ± 0.023	0.59 ± 0.034	0.701 ± 0.012	0.568 ± 0.017	0.691 ± 0.021	0.171 ± 0.011	0.225 ± 0.02	0.456 ± 0.0093
WRCLHLVYLFFH	0.286 ± 0.0091	0.395 ± 0.016	0.438 ± 0.036	0.365 ± 0.048	0.531 ± 0.047	0.192 ± 0.0042	0.173 ± 0.017	0.303 ± 0.013
FAIRMHCLIFRC	0.19 ± 0.0057	0.123 ± 0.05	0.15 ± 0.024	0.26 ± 0.048	0.343 ± 0.036	0.2 ± 0.0056	0.124 ± 0.02	0.185 ± 0.0043
LCFLVLLSLLLL	0.528 ± 0.061	0.558 ± 0.047	0.581 ± 0.018	0.464 ± 0.029	0.5486 ± 0.0041	0.466 ± 0.022	0.456 ± 0.024	0.5057 ± 0.0012
FLCFFGGCFFLV	0.468 ± 0.0077	0.581 ± 0.032	0.646 ± 0.06	0.523 ± 0.029	0.6462 ± 0.0016	0.4162 ± 0.0038	0.401 ± 0.025	0.5617 ± 0.0015
FPSLLFALFLFI	0.475 ± 0.017	0.481 ± 0.046	0.502 ± 0.0056	0.436 ± 0.027	0.5271 ± 0.00065	0.4401 ± 0.0013	0.415 ± 0.036	0.501 ± 0.018
RLLFFVFLSSRF	0.407 ± 0.0066	0.287 ± 0.019	0.268 ± 0.014	0.33 ± 0.025	0.472 ± 0.0093	0.489 ± 0.04	0.329 ± 0.035	0.4212 ± 0.0027
VVCPCIIYVPGV	0.466 ± 0.022	0.619 ± 0.039	0.643 ± 0.011	0.455 ± 0.014	0.637 ± 0.011	0.455 ± 0.016	0.461 ± 0.0066	0.613 ± 0.021
FVFIFIRVFFFR	0.269 ± 0.011	0.174 ± 0.0037	0.207 ± 0.024	0.189 ± 0.044	0.308 ± 0.017	0.171 ± 0.0012	0.176 ± 0.011	0.2451 ± 0.0022
LPHIFFCLFSLL	0.289 ± 0.026	0.582 ± 0.045	0.611 ± 0.047	0.562 ± 0.05	0.657 ± 0.066	0.203 ± 0.01	0.215 ± 0.024	0.317 ± 0.015
VVVYWGSLKRVC	0.263 ± 0.041	0.5772 ± 0.0046	0.669 ± 0.012	0.584 ± 0.02	0.7 ± 0.0057	0.104 ± 0.0089	0.117 ± 0.027	0.289 ± 0.0064
WGAHRVRVSRIL	0.509 ± 0.016	0.686 ± 0.034	0.768 ± 0.021	0.656 ± 0.028	0.742 ± 0.0081	0.295 ± 0.003	0.326 ± 0.043	0.516 ± 0.0052
PYPSVIFFLHVY	0.251 ± 0.049	0.43 ± 0.0097	0.572 ± 0.0084	0.413 ± 0.029	0.56 ± 0.0098	0.15851 ± 3.4e-05	0.169 ± 0.025	0.237 ± 0.021
FFVWGVFLGVSW	0.358 ± 0.012	0.229 ± 0.033	0.264 ± 0.016	0.265 ± 0.043	0.406 ± 0.005	0.297 ± 0.015	0.25 ± 0.026	0.362 ± 0.0063
PLFLLTFAITLV	0.272 ± 0.021	0.0736 ± 0.0086	0.194 ± 0.06	0.166 ± 0.024	0.277 ± 0.018	0.152 ± 0.0066	0.146 ± 0.028	0.2289 ± 0.00087
LRVGVRSWGGKW	0.433 ± 0.0069	0.4323 ± 0.0013	0.5125 ± 0.0013	0.4299 ± 0.0014	0.4369 ± 0.002	0.439 ± 0.013	0.4346 ± 0.0031	0.439 ± 0.014
PSFLAIRVCLLV	0.133 ± 0.021	0.0466 ± 0.00074	0.0881 ± 0.02	0.147 ± 0.034	0.211 ± 0.0098	0.0853 ± 0.02	0.0766 ± 0.01	0.0987 ± 0.036
FGFSFLHLFIFF	0.399 ± 0.035	0.429 ± 0.051	0.395 ± 0.028	0.375 ± 0.033	0.519 ± 0.03	0.443 ± 0.011	0.313 ± 0.038	0.457 ± 0.013

Sequence	protein stability index (Saccharomyces cerevisiae [1])	protein stability index (Saccharomyces cerevisiae [2]; [3])	protein stability index (Saccharomyces cerevisiae [2]; [4])	protein stability index (Saccharomyces cerevisiae [2]; [5])	protein stability index (Saccharomyces cerevisiae [2]; [6])	protein stability index (Saccharomyces cerevisiae [2]; [7])	protein stability index (Saccharomyces cerevisiae [2]; [8])	protein stability index (Saccharomyces cerevisiae [2]; [9])
RGVRALFLLLSF	0.375 ± 0.059	0.493 ± 0.042	0.51346 ± 1.4e-05	0.392 ± 0.039	0.575 ± 0.011	0.264 ± 0.0047	0.272 ± 0.016	0.45 ± 0.02
SRRSIGAYLFVS	0.339 ± 0.026	0.693 ± 0.053	0.761 ± 0.029	0.635 ± 0.039	0.768 ± 0.031	0.178 ± 0.013	0.208 ± 0.018	0.411 ± 0.025
HVCKLAMFQWYF	0.371 ± 0.018	0.6 ± 0.011	0.713 ± 0.031	0.609 ± 0.012	0.72211 ± 0.00042	0.2873 ± 0.0019	0.302 ± 0.02	0.533 ± 0.029
ALLLLLRRFFLV	0.154 ± 0.029	0.432 ± 0.034	0.659 ± 0.029	0.643 ± 0.014	0.739 ± 0.013	0.0867 ± 0.003	0.101 ± 0.044	0.0903 ± 0.02
LIARYTFLFCLC	0.444 ± 0.031	0.553 ± 0.042	0.611 ± 0.015	0.531 ± 0.015	0.628 ± 0.021	0.3501 ± 0.0008	0.354 ± 0.024	0.488 ± 0.025
CYVFLCGSFVFV	0.471 ± 0.037	0.446 ± 0.011	0.499 ± 0.0084	0.36 ± 0.036	0.551 ± 0.014	0.317 ± 0.0068	0.351 ± 0.023	0.515 ± 0.012
SLTNYQRLIHVC	0.258 ± 0.13	0.147 ± 0.037	0.245 ± 0.064	0.223 ± 0.031	0.361 ± 0.014	0.0969 ± 0.0057	0.126 ± 0.036	0.0936 ± 0.0094
VCVFNLTLVGTH	0.366 ± 0.023	0.421 ± 0.05	0.462 ± 0.018	0.347 ± 0.027	0.449 ± 0.0089	0.358 ± 0.028	0.343 ± 0.018	0.4341 ± 0.0033
FTFLFPLRLLPL	0.3469 ± 0.00084	0.305 ± 0.051	0.295 ± 0.025	0.377 ± 0.036	0.478 ± 0.015	0.586 ± 0.033	0.374 ± 0.009	0.442 ± 0.011
RPCRPLIAAFVF	0.502 ± 0.011	0.531 ± 0.0097	0.537 ± 0.022	0.415 ± 0.045	0.5628 ± 0.0049	0.374 ± 0.012	0.421 ± 0.031	0.529 ± 0.0077
GVMICLDLLLSV	0.468 ± 0.0081	0.482 ± 0.011	0.521 ± 0.021	0.377 ± 0.025	0.539 ± 0.014	0.361 ± 0.018	0.395 ± 0.017	0.528 ± 0.0073
CLWNFWVRFLLL	0.175 ± 0.022	0.298 ± 0.042	0.406 ± 0.023	0.399 ± 0.014	0.509 ± 0.015	0.164 ± 0.0046	0.139 ± 0.01	0.135 ± 0.0083
RFPFFLPFIAFL	0.37 ± 0.036	0.491 ± 0.012	0.539 ± 0.019	0.55 ± 0.0097	0.637 ± 0.0021	0.306 ± 0.013	0.254 ± 0.032	0.39 ± 0.0084
YCDPSLIWLYLM	0.249 ± 0.02	0.57 ± 0.012	0.714 ± 0.018	0.61 ± 0.021	0.727 ± 0.0077	0.1768 ± 0.0011	0.18 ± 0.012	0.275 ± 0.031
YKLRAVFVCSVT	0.392 ± 0.037	0.575 ± 0.06	0.6329 ± 0.0043	0.507 ± 0.021	0.6427 ± 0.0023	0.311 ± 0.018	0.34 ± 0.025	0.445 ± 0.028
AFLFLFSITCIV	0.241 ± 0.013	0.181 ± 0.011	0.23 ± 0.0042	0.195 ± 0.029	0.342 ± 0.0063	0.197 ± 0.014	0.19 ± 0.028	0.313 ± 0.0012
FFLSFICVMLCG	0.237 ± 0.027	0.192 ± 0.024	0.247 ± 0.024	0.173 ± 0.013	0.303 ± 0.0073	0.165 ± 0.0019	0.158 ± 0.011	0.2575 ± 0.0025
SLAPPPPLLILR	0.335 ± 0.022	0.403 ± 0.049	0.325 ± 0.015	0.345 ± 0.021	0.479 ± 0.049	0.605 ± 0.0019	0.348 ± 0.025	0.4471 ± 0.0029
RVRNSQVVAVVG	0.477 ± 0.011	0.491 ± 0.014	0.576 ± 0.014	0.354 ± 0.038	0.586 ± 0.0092	0.3291 ± 0.0023	0.382 ± 0.018	0.548 ± 0.022
